Measured values from the supplement of paper PMC9112550, “Optimization of the antimicrobial peptide Bac7 by deep mutational scanning” (BMC Biology, 2022).

Tested on: Escherichia coli TOP10
Test: shrunken log2 fold change of peptide-encoding DNA abundance (4.5 h post-induction vs induction); higher = less antimicrobial activity (less host growth inhibition)
Settings: time post-induction: 4.5 h; library: site-saturation at positions 5, 18, 19, 20
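Also: peptides expressed intracellularly from a pBAD plasmid library in pooled LB shake-flask culture, induced with 0.3% L-arabinose, DNA abundance read by NGS, three biological replicates, DESeq2 with apeglm shrinkage.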

Row | Sequence | shrunken log2 fold change
1 | RRIRERPPRLPRPRPRPAYDPRP | -0.394
2 | RRIRERPPRLPRPRPRPAYNPRP | -0.449
3 | RRIRERPPRLPRPRPRPAYYPRP | -0.356
4 | RRIRERPPRLPRPRPRPCACPRP | -0.78
5 | RRIRERPPRLPRPRPRPCCEPRP | -0.366
6 | RRIRERPPRLPRPRPRPCDEPRP | 0.011
7 | RRIRERPPRLPRPRPRPCDRPRP | -0.187
8 | RRIRERPPRLPRPRPRPCEEPRP | -0.125
9 | RRIRERPPRLPRPRPRPCFDPRP | -0.144
10 | RRIRERPPRLPRPRPRPCFGPRP | -0.252
11 | RRIRERPPRLPRPRPRPCGCPRP | -0.0805
12 | RRIRERPPRLPRPRPRPCGGPRP | -0.0228
13 | RRIRERPPRLPRPRPRPCGVPRP | 0.0484
14 | RRIRERPPRLPRPRPRPCHHPRP | -0.209
15 | RRIRERPPRLPRPRPRPCHSPRP | -0.0339
16 | RRIRERPPRLPRPRPRPCHWPRP | -0.0135
17 | RRIRERPPRLPRPRPRPCIQPRP | -1.15
18 | RRIRERPPRLPRPRPRPCISPRP | -0.218
19 | RRIRERPPRLPRPRPRPCIWPRP | -0.0915
20 | RRIRERPPRLPRPRPRPCKRPRP | -0.294
21 | RRIRERPPRLPRPRPRPCLFPRP | -0.222
22 | RRIRERPPRLPRPRPRPCLKPRP | 0.0135
23 | RRIRERPPRLPRPRPRPCMHPRP | -0.0148
24 | RRIRERPPRLPRPRPRPCPDPRP | -0.0864
25 | RRIRERPPRLPRPRPRPCQEPRP | -0.181

Row | Sequence | shrunken log2 fold change
26 | RRIRERPPRLPRPRPRPCSDPRP | -0.5
27 | RRIRERPPRLPRPRPRPCSGPRP | -0.434
28 | RRIRERPPRLPRPRPRPCSIPRP | -0.471
29 | RRIRERPPRLPRPRPRPCTLPRP | -0.407
30 | RRIRERPPRLPRPRPRPCTMPRP | 0.018
31 | RRIRERPPRLPRPRPRPCTPPRP | -0.239
32 | RRIRERPPRLPRPRPRPCVAPRP | 0.258
33 | RRIRERPPRLPRPRPRPCVKPRP | -0.00643
34 | RRIRERPPRLPRPRPRPCVRPRP | -0.447
35 | RRIRERPPRLPRPRPRPCYHPRP | -0.744
36 | RRIRERPPRLPRPRPRPCYMPRP | -0.0163
37 | RRIRERPPRLPRPRPRPCYVPRP | -0.716
38 | RRIRERPPRLPRPRPRPDAHPRP | -0.308
39 | RRIRERPPRLPRPRPRPDCIPRP | 0.0113
40 | RRIRERPPRLPRPRPRPDCKPRP | 0.0476
41 | RRIRERPPRLPRPRPRPDEKPRP | 0.147
42 | RRIRERPPRLPRPRPRPDGEPRP | -0.115
43 | RRIRERPPRLPRPRPRPDHKPRP | -0.501
44 | RRIRERPPRLPRPRPRPDKCPRP | -0.121
45 | RRIRERPPRLPRPRPRPDKKPRP | 0.0282
46 | RRIRERPPRLPRPRPRPDKVPRP | -0.121
47 | RRIRERPPRLPRPRPRPDLLPRP | -0.183
48 | RRIRERPPRLPRPRPRPDLSPRP | -0.349
49 | RRIRERPPRLPRPRPRPDNFPRP | 0.00707
50 | RRIRERPPRLPRPRPRPDNKPRP | -0.75

Row | Sequence | shrunken log2 fold change
51 | RRIRERPPRLPRPRPRPDNLPRP | -0.00994
52 | RRIRERPPRLPRPRPRPDPAPRP | 2.64
53 | RRIRERPPRLPRPRPRPDPLPRP | 0.00979
54 | RRIRERPPRLPRPRPRPDPPPRP | 0.32
55 | RRIRERPPRLPRPRPRPDPTPRP | -0.0306
56 | RRIRERPPRLPRPRPRPDQKPRP | -0.0097
57 | RRIRERPPRLPRPRPRPDSMPRP | -0.076
58 | RRIRERPPRLPRPRPRPDTCPRP | -0.0337
59 | RRIRERPPRLPRPRPRPDTYPRP | 0.0491
60 | RRIRERPPRLPRPRPRPDVPPRP | -0.117
61 | RRIRERPPRLPRPRPRPDWVPRP | 0.0322
62 | RRIRERPPRLPRPRPRPDYAPRP | -0.0187
63 | RRIRERPPRLPRPRPRPEAAPRP | 0.575
64 | RRIRERPPRLPRPRPRPEAEPRP | 0.315
65 | RRIRERPPRLPRPRPRPEAIPRP | -0.0664
66 | RRIRERPPRLPRPRPRPEAMPRP | 0.0431
67 | RRIRERPPRLPRPRPRPECWPRP | 0.447
68 | RRIRERPPRLPRPRPRPEENPRP | 0.127
69 | RRIRERPPRLPRPRPRPEFKPRP | 0.114
70 | RRIRERPPRLPRPRPRPEGVPRP | 0.172
71 | RRIRERPPRLPRPRPRPEHIPRP | -0.594
72 | RRIRERPPRLPRPRPRPEHQPRP | 0.0588
73 | RRIRERPPRLPRPRPRPEHYPRP | -0.454
74 | RRIRERPPRLPRPRPRPEISPRP | -0.407
75 | RRIRERPPRLPRPRPRPEIVPRP | 0.00903

Row | Sequence | shrunken log2 fold change
76 | RRIRERPPRLPRPRPRPEKGPRP | -0.0493
77 | RRIRERPPRLPRPRPRPELQPRP | -0.0137
78 | RRIRERPPRLPRPRPRPEMAPRP | 0.414
79 | RRIRERPPRLPRPRPRPEMDPRP | 0.125
80 | RRIRERPPRLPRPRPRPEMSPRP | 0.0528
81 | RRIRERPPRLPRPRPRPENEPRP | -0.0522
82 | RRIRERPPRLPRPRPRPESAPRP | 0.056
83 | RRIRERPPRLPRPRPRPESMPRP | -0.46
84 | RRIRERPPRLPRPRPRPETMPRP | 0.0664
85 | RRIRERPPRLPRPRPRPEVHPRP | 0.116
86 | RRIRERPPRLPRPRPRPEWIPRP | 0.064
87 | RRIRERPPRLPRPRPRPEYIPRP | -0.177
88 | RRIRERPPRLPRPRPRPFARPRP | 0.102
89 | RRIRERPPRLPRPRPRPFCIPRP | -0.346
90 | RRIRERPPRLPRPRPRPFCYPRP | -0.927
91 | RRIRERPPRLPRPRPRPFDRPRP | -0.0163
92 | RRIRERPPRLPRPRPRPFENPRP | -0.01
93 | RRIRERPPRLPRPRPRPFHLPRP | -0.173
94 | RRIRERPPRLPRPRPRPFHNPRP | -0.413
95 | RRIRERPPRLPRPRPRPFHTPRP | -0.0574
96 | RRIRERPPRLPRPRPRPFILPRP | -0.784
97 | RRIRERPPRLPRPRPRPFISPRP | -0.0623
98 | RRIRERPPRLPRPRPRPFLGPRP | -0.284
99 | RRIRERPPRLPRPRPRPFLKPRP | -0.0233
100 | RRIRERPPRLPRPRPRPFMDPRP | -0.243

Row | Sequence | shrunken log2 fold change
101 | RRIRERPPRLPRPRPRPFMLPRP | -0.511
102 | RRIRERPPRLPRPRPRPFMQPRP | -0.178
103 | RRIRERPPRLPRPRPRPFNRPRP | -0.0972
104 | RRIRERPPRLPRPRPRPFPIPRP | 0.118
105 | RRIRERPPRLPRPRPRPFPTPRP | -0.573
106 | RRIRERPPRLPRPRPRPFQEPRP | -0.0402
107 | RRIRERPPRLPRPRPRPFQLPRP | 0.053
108 | RRIRERPPRLPRPRPRPFREPRP | -0.235
109 | RRIRERPPRLPRPRPRPFRFPRP | -0.185
110 | RRIRERPPRLPRPRPRPFVLPRP | -0.358
111 | RRIRERPPRLPRPRPRPFWFPRP | -0.303
112 | RRIRERPPRLPRPRPRPFYDPRP | -0.106
113 | RRIRERPPRLPRPRPRPFYKPRP | 0.187
114 | RRIRERPPRLPRPRPRPFYWPRP | -0.158
115 | RRIRERPPRLPRPRPRPGAPPRP | 0.301
116 | RRIRERPPRLPRPRPRPGARPRP | 0.255
117 | RRIRERPPRLPRPRPRPGASPRP | 0.075
118 | RRIRERPPRLPRPRPRPGDIPRP | -0.072
119 | RRIRERPPRLPRPRPRPGDNPRP | -0.0779
120 | RRIRERPPRLPRPRPRPGDPPRP | 0.103
121 | RRIRERPPRLPRPRPRPGEPPRP | -0.107
122 | RRIRERPPRLPRPRPRPGFPPRP | 0.176
123 | RRIRERPPRLPRPRPRPGGFPRP | 0.292
124 | RRIRERPPRLPRPRPRPGIKPRP | -0.587
125 | RRIRERPPRLPRPRPRPGISPRP | -0.017

Row | Sequence | shrunken log2 fold change
126 | RRIRERPPRLPRPRPRPGLRPRP | 0.0748
127 | RRIRERPPRLPRPRPRPGLYPRP | -0.233
128 | RRIRERPPRLPRPRPRPGMRPRP | 0.471
129 | RRIRERPPRLPRPRPRPGNIPRP | -0.989
130 | RRIRERPPRLPRPRPRPGNKPRP | -0.00852
131 | RRIRERPPRLPRPRPRPGNYPRP | -0.264
132 | RRIRERPPRLPRPRPRPGPDPRP | -0.118
133 | RRIRERPPRLPRPRPRPGPQPRP | 0.231
134 | RRIRERPPRLPRPRPRPGPTPRP | 0.215
135 | RRIRERPPRLPRPRPRPGQIPRP | 0.0685
136 | RRIRERPPRLPRPRPRPGQRPRP | -0.0192
137 | RRIRERPPRLPRPRPRPGRNPRP | -0.237
138 | RRIRERPPRLPRPRPRPGSLPRP | -0.431
139 | RRIRERPPRLPRPRPRPGSNPRP | -0.0638
140 | RRIRERPPRLPRPRPRPGSRPRP | -0.0607
141 | RRIRERPPRLPRPRPRPGTQPRP | -0.0335
142 | RRIRERPPRLPRPRPRPGTSPRP | 1.87
143 | RRIRERPPRLPRPRPRPGVCPRP | 0.155
144 | RRIRERPPRLPRPRPRPGVEPRP | -0.194
145 | RRIRERPPRLPRPRPRPGVNPRP | 0.0154
146 | RRIRERPPRLPRPRPRPGWEPRP | 0.0307
147 | RRIRERPPRLPRPRPRPGWNPRP | 0.277
148 | RRIRERPPRLPRPRPRPGYEPRP | -0.00204
149 | RRIRERPPRLPRPRPRPGYNPRP | -0.0871
150 | RRIRERPPRLPRPRPRPHCAPRP | 0.201
